Values of other authors in patent US20150010606A1, “INTRA-ARTICULAR INJECTION AND IMPLANT ATTACHMENT OF MOLECULE CONSISTING OF LUBRICIN AND EXTRACELLULAR SUPEROXIDE DISMUTASE OR HYALURONIC ACID AND EXTRACELLULAR SUPEROXIDE DISMUTASE” (Arthrex, Inc., priority 2013, published 2015).

B1: Extracellular superoxide dismutase [Cu—Zn] (protein, UniProt P08294 19-240, looked up)
Extracellular superoxide …: WTGEDSAEPNSDSAEWIRDMYAKVTEIWQEVMQRRDDDGALHAACQVQPSATLDAAQPRVTGVVLFRQLAPRAKLDAFFALEGFPTEPNSSSRAIHVHQFGDLSQGCESTGPHYNPLAVPHPQHPGDFGNFAVRDGSLWRYRAGLAASLAGPHSIVGRAVVVHAGEDDLGRGGNQASVENGNAGRRLACCVVGVCGPGLWERQAREHSERKKRRRESECKAA

Legend:
osteoarthritis = conditions: intra-articular injection; human clinical studies; compared to a placebo control
[1] = system: collagen-induced arthritis; conditions: mice with collagen-induced arthritis treated with SOD3

Row | Molecule | treatment of osteoarthritis (osteoarthritis) | histology of the joint [1] | joint swelling and deformity [1]
1 | SOD derived from bovine erythrocytes: superoxide dismutase derived from bovine erythrocytes, injected intra-articularly to treat osteoarthritis | significant success when compared to a placebo control |  | 
2 | B1 |  | less destruction of cartilage and bone, less infiltration of mononuclear cells, and less proliferation of synovial cells | suppression of joint swelling and deformity
